Assay results from the supplement of paper PMC10567573.

B1: FBF1 (parent)
chain: FGDSPKAEKRQIGDQEGPRPARST
B2: INTS3 (parent)
chain: DLNSKGKKREFRFHPIKETVVEEP

Variants of: B1
Assay: protein stability index of a GFP-peptide fusion (GPS, HEK-293T) (PSI 1-6); higher = more stable
Details: c terminus: a fixed tail appended
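Note: lentivirally expressed fusions sorted by FACS into six bins by GFP to DsRed ratio, PSI derived from sequencing read proportions per bin multiplied by bin number.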

| Variant | protein stability index |
| --- | --- |
| FGDSPKAEKRQIGDQEGPRPAKST [R22K] | 4.92 |
| FGDSPKAEKRQIGDQEGPRPAAST [R22A] | 5.15 |
| FGDSPKAEKRQIGDQEGPRPAIST [R22I] | 5.46 |
| FGDSPKAEKRQIGDQEGPRPANST [R22N] | 5.66 |
| FGDSPKAEKRQIGDQEGPRPAQST [R22Q] | 5.16 |
| FGDSPKAEKRQIGDQEGPRPAWST [R22W] | 3.86 |
| FGDSPKAEKRQIGDQEGPRPAEST [R22E] | 4.79 |
| FGDSPKAEKRQIGDQEGPRPAHST [R22H] | 4.97 |
| FGDSPKAEKRQIGDQEGPRPADST [R22D] | 5.27 |
| FGDSPKAEKRQIGDQEGPRPAFST [R22F] | 4.49 |
| FGDSPKAEKRQIGDQEGPRPALST [R22L] | 5.38 |
| FGDSPKAEKRQIGDQEGPRPAPST [R22P] | 5.64 |
| FGDSPKAEKRQIGDQEGPRPAGST [R22G] | 4.92 |
| FGDSPKAEKRQIGDQEGPRPAMST [R22M] | 5.72 |
| FGDSPKAEKRQIGDQEGPRPATST [R22T] | 4.8 |
| FGDSPKAEKRQIGDQEGPRPACST [R22C] | 5.26 |
| FGDSPKAEKRQIGDQEGPRPASST [R22S] | 5.4 |
| FGDSPKAEKRQIGDQEGPRPARPT [S23P] | 4.67 |
| FGDSPKAEKRQIGDQEGPRPARGT [S23G] | 5.7 |
| FGDSPKAEKRQIGDQEGPRPARKT [S23K] | 4.29 |
| FGDSPKAEKRQIGDQEGPRPARDT [S23D] | 5.31 |
| FGDSPKAEKRQIGDQEGPRPARMT [S23M] | 5.01 |

| Variant | protein stability index |
| --- | --- |
| FGDSPKAEKRQIGDQEGPRPARYT [S23Y] | 5.37 |
| FGDSPKAEKRQIGDQEGPRPARCT [S23C] | 4.66 |
| FGDSPKAEKRQIGDQEGPRPARHT [S23H] | 5.53 |
| FGDSPKAEKRQIGDQEGPRPARIT [S23I] | 4.57 |
| FGDSPKAEKRQIGDQEGPRPARLT [S23L] | 4.98 |
| FGDSPKAEKRQIGDQEGPRPARTT [S23T] | 5.12 |
| FGDSPKAEKRQIGDQEGPRPARRT [S23R] | 4.78 |
| FGDSPKAEKRQIGDQEGPRPARNT [S23N] | 5.5 |
| FGDSPKAEKRQIGDQEGPRPARAT [S23A] | 5.25 |
| FGDSPKAEKRQIGDQEGPRPARVT [S23V] | 5 |
| FGDSPKAEKRQIGDQEGPRPARET [S23E] | 5.03 |
| FGDSPKAEKRQIGDQEGPRPARSP [T24P] | 5.25 |
| FGDSPKAEKRQIGDQEGPRPARSR [T24R] | 4.68 |
| FGDSPKAEKRQIGDQEGPRPARSW [T24W] | 4.34 |
| FGDSPKAEKRQIGDQEGPRPARSQ [T24Q] | 5.62 |
| FGDSPKAEKRQIGDQEGPRPARSD [T24D] | 4.52 |
| FGDSPKAEKRQIGDQEGPRPARSI [T24I] | 4.45 |
| FGDSPKAEKRQIGDQEGPRPARSF [T24F] | 4.83 |
| FGDSPKAEKRQIGDQEGPRPARSV [T24V] | 4.67 |
| FGDSPKAEKRQIGDQEGPRPARSM [T24M] | 4.81 |
| FGDSPKAEKRQIGDQEGPRPARSA [T24A] | 4.91 |
| FGDSPKAEKRQIGDQEGPRPARSC [T24C] | 4.96 |

| Variant | protein stability index |
| --- | --- |
| FGDSPKAEKRQIGDQEGPRPARSE [T24E] | 5.3 |
| FGDSPKAEKRQIGDQEGPRPARSH [T24H] | 4.98 |
| FGDSPKAEKRQIGDQEGPRPARSY [T24Y] | 4.74 |
| FGDSPKAEKRQIGDQEGPRPARSN [T24N] | 5.34 |
| FGDSPKAEKRQIGDQEGPYPARST [R19Y] | 4.21 |
| FGDSPKAEKRQIGDQEGPWPARST [R19W] | 3.25 |
| FGDSPKAEKRQIGDQEGPRPDRST [A21D] | 5.5 |
| FGDSPKAEKRQIGDQEGPRPHRST [A21H] | 4.93 |
| FGDSPKAEKRQIGDQEGPRPVRST [A21V] | 5.42 |
| FGDSPKAEKRQIGDQEGPRPNRST [A21N] | 5.34 |
| FGDSPKAEKRQIGDQEGPRPMRST [A21M] | 4.92 |
| FGDSPKAEKRQIGDQEGPRPCRST [A21C] | 5.2 |
| FGDSPKAEKRQIGDQEGPRPYRST [A21Y] | 4.86 |
| FGDSPKAEKRQIGDQEGPRPGRST [A21G] | 5.73 |
| FGDSPKAEKRQIGDQEGPRPIRST [A21I] | 4.77 |
| FGDSPKAEKRQIGDQEGPRPSRST [A21S] | 4.37 |
| FGDSPKAEKRQIGDQEGPRPQRST [A21Q] | 5.62 |
| FGDSPKAEKRQIGDQEGPRPPRST [A21P] | 5.19 |
| FGDSPKAEKRQIGDQEGPRPFRST [A21F] | 4.52 |
| FGDSPKAEKRQIGDQEGPRPLRST [A21L] | 4.17 |
| FGDSPKAEKRQIGDQEGPRPRRST [A21R] | 4.59 |
| FGDSPKAEKRQIGDQEGPRPTRST [A21T] | 5.9 |

| Variant | protein stability index |
| --- | --- |
| FGDSPKAEKRQIGDQEGPRPKRST [A21K] | 5.23 |
| FGDSPKAEKRQIGDQEGPRGARST [P20G] | 3.96 |
| FGDSPKAEKRQIGDQEGPRHARST [P20H] | 4.95 |
| FGDSPKAEKRQIGDQEGPRSARST [P20S] | 5.02 |
| FGDSPKAEKRQIGDQEGPRDARST [P20D] | 5.07 |
| FGDSPKAEKRQIGDQEGPRIARST [P20I] | 4.84 |
| FGDSPKAEKRQIGDQEGPRQARST [P20Q] | 5.39 |
| FGDSPKAEKRQIGDQEGPREARST [P20E] | 5.58 |
| FGDSPKAEKRQIGDQEGPRMARST [P20M] | 4.96 |
| FGDSPKAEKRQIGDQEGPRVARST [P20V] | 4.54 |
| FGDSPKAEKRQIGDQEGPRWARST [P20W] | 4.58 |
| FGDSPKAEKRQIGDQEGPRLARST [P20L] | 4.46 |
| FGDSPKAEKRQIGDQEGPRFARST [P20F] | 4.57 |
| FGDSPKAEKRQIGDQEGPRYARST [P20Y] | 4.91 |
| FGDSPKAEKRQIGDQEGPRTARST [P20T] | 5.08 |
| FGDSPKAEKRQIGDQEGPRKARST [P20K] | 4.72 |
| FGDSPKAEKRQIGDQEGPRNARST [P20N] | 4.89 |
| FGDSPKAEKRQIGDQEGPRAARST [P20A] | 5.25 |
| FGDSPKAEKRQIGDQEGPRRARST [P20R] | 5.26 |

Variants of: B2
Assay: as above
Details: c terminus: a fixed tail appended

| Variant | protein stability index |
| --- | --- |
| DLNTKGKKREFRFHPIKETVVEEP [S4T] | 2.49 |
| DLNQKGKKREFRFHPIKETVVEEP [S4Q] | 1.88 |
| DLNEKGKKREFRFHPIKETVVEEP [S4E] | 3.09 |
| DLNIKGKKREFRFHPIKETVVEEP [S4I] | 2.12 |
| DLNGKGKKREFRFHPIKETVVEEP [S4G] | 2.13 |
| DLNNKGKKREFRFHPIKETVVEEP [S4N] | 1.99 |
| DLNDKGKKREFRFHPIKETVVEEP [S4D] | 2.6 |
| DLNWKGKKREFRFHPIKETVVEEP [S4W] | 1.92 |
| DLNMKGKKREFRFHPIKETVVEEP [S4M] | 2.03 |
